Results published in the nanobody polyreactivity screen of Harvey et al. (2022).

Assay: yeast display, Sf9 membrane polyspecificity reagent, FACS + sequencing; frameworks hold sequencing errors
How it was run: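 In a synthetic yeast display library (Saccharomyces cerevisiae BJ5465), nanobody expression was induced with galactose for 36–48 hours. FACS gates were set low and high (top ~1%) using anti-HA fluorescence for expression and streptavidin fluorescence for binding of the Sf9 membrane reagent. Each polyreactivity label is drawn from the gate of origin.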

## QVQLVESGGGLVQAGGSLRLSCAASGFTFRYYAMGSYRQAPGKERELVAAISAGGGSTYYADSVKGRFTISRDNAKNTVYLQMNSLKPEDTAVYYCAAAGARPGYDYWGQGTQVTVSS
  polyreactivity (PSR sort gate): high polyreactivity

## QVQLVESGGGLVQAGASLRLSCAASGSIFSSYARGWYRPAPGKERELVAVITNGGSTYYADSVKGRFTISRDYAKNTVYLQMNSLKPEDTAVYYCNARWTKGRKYGYWGQGTQVTVSS
  polyreactivity (PSR sort gate): low polyreactivity

## QVQLVESGGGLVQAGGSLRLSCAASGSIFSRYAMGWYIQAPGKERELVAAISTGGGRTYYADSVKGRFTISRDNAKNTVYLKMNSLKPEDTAVYYCAAPQQQSWTYDGRYGYWGQGTQVTVSS
  polyreactivity (PSR sort gate): high polyreactivity

## QVQLVESGGGLVQAGGSLRLSCAASGSIFVRNTMGWYRQAPGKERELVASIDWSGGITYYADSVKGRFTISRDNAKNTVYLQMNSLKPEDTAVYYCNAVFLYPFNVPTMEYWGQGTQVTVSS
  polyreactivity (PSR sort gate): low polyreactivity

## QVQLVESGGGLVQAGGSLRLSCAASGFIFDFYTMGWYSQAPGKERELVAAITNGGSTYYADSVKGRFTISRDNAKNTVYLQMNSLKPEDTAVYYCAAYYRSRHHGYDSWGQGTQVTVSS
  polyreactivity (PSR sort gate): low polyreactivity

## QVQLVESGGGLDQAGGSHRLSCAASGRIFTYNAIGWYRQAPGKERELVAAISRRGGTTYYADSVKGRFTISRDNAKNTVYLQMNSLKPEDTAVYYCAAVVFTRGVTSRTVSRYDYWGQGTLVTVSS
  polyreactivity (PSR sort gate): high polyreactivity

## QVQLVESGGGLVQAGGSLRLSCAASGSTFYVYAMGWYRQAPRKERELVAAIDGSTGSTYYADSVKGRFTISRDNAKNTVYLQMNSLKPEDTAVYYCNADYYYEVDSWGQGTQVTVSS
  polyreactivity (PSR sort gate): low polyreactivity

## QVQLVDSGGGLVQAGGSLRLSSAASGRTLVNYAMGCYRQAPGKERELVAAISYSGGSTYYADSVKGRFTISRDNAKNTVYLQMNSLKPEDTAVYYCAAYYYQRYDYWGQGTQVTVSS
  polyreactivity (PSR sort gate): high polyreactivity

## QVQLVESGGGLVQAGGSLRLSCAASGRIFRYYAMGWYRQAPGKERELVAAISWSGSSTYYADSVKGRFTISRDNAKNTVFLQMNSLKPEDTAVYYCDALILSKSEYYWGQGTQVSVSS
  polyreactivity (PSR sort gate): high polyreactivity

## QVQLVESGGGLVQAGGSLRLSCAASGSIFVRNAMGWYRQAPGKERELVAAITSDVNTYYADSVKGRFTISRDNGKNTVYLQMNSLKPEDTAVYYCAKGVTSQPNDPAPFPRYEYWGQGTQVTVSS
  polyreactivity (PSR sort gate): low polyreactivity

## QVQLVESGGGLVQAGGSLRLSCAASGSNFTQYAMGWYRQAPGTERELVAAISSGTRTYYADSVKGRFTISRDNAKNTVYVQMNSLKPEDTAVYYCAARYRSYFYWSGYWGHGTQVTVSS
  polyreactivity (PSR sort gate): low polyreactivity

## QVQLVESGGGLFQAGGSLRLSCAASGRTFCFYTMGWYRQAPGKASELVAAISSGGSTNYADSVKGRFTISRDNAKNTVYLQMNSLKPEDTAVYYCNARFPVCPSEDAVWYYPKFDYWGQGTQVTVSW
  polyreactivity (PSR sort gate): low polyreactivity

## QVQLVESGGGLVQAGGSLRLSCAPSGSIYTPYAMGWYRPAPGKLRELVADISRSGSTNYADSVKGRFTISLDNAKKTVYLQMNSLKPEDTAVYYCNADFWWHWGTSYDYWGQGTQVTVSS
  polyreactivity (PSR sort gate): high polyreactivity

## QVQLVESGGGLVQAGGSLRLSCAASGSTFFYNAMGWSRQAPGKERELVAAIRFSGGSTRYADSVKGRFTISRDNAKNTVYLQMNSLKPEDTAVYYCNARGFRESIWYQYDYWGQGTQVTVSS
  polyreactivity (PSR sort gate): high polyreactivity

## QVQLVESGGGLVQAGGSLRLSCAASGRIFVGNAMGWYRQAPGKEWALVAANSGSGDSTYYADSVKGRFTISRDNAKNTVYLQMISLKPEDTAVYYCNVDYDFVIYYYWYYPGYDYWGQGTQVTVSS
  polyreactivity (PSR sort gate): low polyreactivity

## QVQLVESGGGLVQAGGSLLLSCAASGNIIYSNALGWYRQGPGKERELVAAISSGGITYYADSVKGRFTISRDNAKNTVYLQMNSLKPEDTAVYYCAAYIRNWRATYEYWGQGTQVTVSS
  polyreactivity (PSR sort gate): high polyreactivity

## QVQLVESGGGLVQAGGSLRLSCAASGRTFSGNAMGWYRQAPGKEREFVAVISSNGGSTYYADSVKGRFTISRDNAKNTVYLQMNSLKPEDTAVYYCNARYWRGWGGRVSKYGYWGQGTQVTVSS
  polyreactivity (PSR sort gate): high polyreactivity

## QVQLVESGGGLVQAGGSLRLSCAASGSTFISNTMGWYRQAPGKERELVAGISSIGGITYYADSVKGRFTISRDNAKNTVYLQMNSLKPEDTAVYYCAKLDVISDDLDYWGQGTQVTVSS
  polyreactivity (PSR sort gate): low polyreactivity

## QVQLVESGGGLVQAGGSLRLSCAAYGSIFRVYAMGWYRQAPGKEREFVAAITRRGTRTYYADSVKGRFTISRDNAKNTVYLQMNSLKPEDTAVYYCAAYFTDGLFEYWGQGTQVTVSS
  polyreactivity (PSR sort gate): low polyreactivity

## QVQLVESGGGLVQAGGSLRLSCAASGRTFRGNAMGWYRPAPGKERELVAAITTAGGTYYADSVKGRFTISRDNAKNTVYLQMNSLKPEDTAVYYCAKLSHRGQSTGVDYWGQGTQVTVSS
  polyreactivity (PSR sort gate): low polyreactivity

## QVQLVESGGGVVQAGGSLRLSCAASGSTFGINCYGMYRQAPGKERELVAGISVSGGSTYYADSVKGRFTISRDNAKNTVYLKMNSLKPEDSAVYYCNRDTTVFLIYSYGYWGQGTQVTVSS
  polyreactivity (PSR sort gate): low polyreactivity

## QVQLVESGGGLVQAGGSLRLSCAASGGTFYPYAMGWYRQAPGKERELVAAISASDDNTYYADSVKGRFTISRDNAKNTVYLQMNSLKPEDTAVYYCAKRSYFYPYGYWGQGTQVTVSS
  polyreactivity (PSR sort gate): high polyreactivity

## QVQLVESGGGLVQAGGSVRLSCGASGSIFLGNSMGWYRQAPGTLRELVAAISSITGSTYYADSVKGRFSISRDIAKNTVYLQMNRLKQEETGVYYCARVPDTEGEYWGQGTQVTVSS
  polyreactivity (PSR sort gate): high polyreactivity

## QVQLVESGGGLVQAGGSLSLSCAASGITFIHNAMGLYIQAPGKERELVAAITPSDGSTYYADSVKGRFTISRDNAKNTVFLQMNSLKPEDTAVYYCAARGRHSGYYSVPYYYWGQGTQVTVSS
  polyreactivity (PSR sort gate): low polyreactivity

## QVPLVESGGGLVQAGGSLRLSCAPSGSTYYFYTMGWYIQAPGKERELVAAIRDSGSSTYYADSVKGRFTISRDNAKNTVYLQMNSLKPEDTAVYYCATGVDTYSLTVEHDSWGQGTQVTVSS
  polyreactivity (PSR sort gate): low polyreactivity

## QVQLVESGGGLLQAGGSLRLSCAASGITFGRNTMGWYRQAPGKERELVAAINSGGSTTYADSVKGRFTISRDNAKNTVYLQMISLKPEDSAVYYCNKSSTGWTATYDYWGQGTQVTVSS
  polyreactivity (PSR sort gate): low polyreactivity

## QVQLVESGGGLVQAGGSLRLSCAASGRTFSYYAMGWYRQAPGKERELVAAITSSGGRTYYADSVKGRFTISRDTAKKSFYFQMYSLKPEDSAVYFFNTYTGQRDFSPFDSWGQGTQVTVTS
  polyreactivity (PSR sort gate): high polyreactivity

## QLQLVESGGGLVQAGGRLRLSCAASGGIFQTNAMGWYRQAPGKERELVAAISRSAGRTYYADSVKGRFTISRDNAKNTVYLQMTSLKPEDTAVYYCNALRGRFRFDYWGQGTQVTVSS
  polyreactivity (PSR sort gate): high polyreactivity

## QVQLQESRGGLVQAGGSLRLICAASGSISCPHVMGWYRQAPGKEREFVAAINVGANTYYADNVKGRFTISRDNAKNTVYLQKNSLKPEATAVYYCAAVYYGDIGHEYWGQGTQVTVSC
  polyreactivity (PSR sort gate): low polyreactivity

## QVQLVESGGGLVQAGGSLRLSCAASGSIFRRNAMGWYRQAPGKERELVAAINSRGGSTYYADSVKGRFTISRDNAKNTVYLQMNSLKPEDTAVYYCATARFLRYDRYDDYWGQGTQVTVSS
  polyreactivity (PSR sort gate): low polyreactivity

## QVQLVESGGGLVQAGGILRLSCAAAGFIFYRYAMGWYREAPGKEREFVAAISRSGGSTYYADSVKGRFTISRDNAKNTVYLQMNSLKPEDTAVYYCAAGRVTISYFQDRLTTYDYWGQGTQVTVSS
  polyreactivity (PSR sort gate): high polyreactivity

## QVQLVESGGGLVQAGGSLRLICAASGVIFLRYAMGWYRQAPGKERELVAAISSSGDITYYADSVKGRFTISRDNAKNTVYLQMYSLKPEDTAVYYCAATVGLWEYGYWGQGTQVTVSS
  polyreactivity (PSR sort gate): low polyreactivity

## QVQLVESGGGLVQAGGSLRLSCAASGSIFSGYTMGWYRQAPGKERELVAGISYRGGSTYYADSVKGRFTNSRDNAKNTVYLQMNSLKPEDTAVYYCAALYYRRGSLNYEYWGQGTQVTVSS
  polyreactivity (PSR sort gate): high polyreactivity

## QVQLVESGGGLVQAGGSLRLSCAASGRTFPGNDMGWYRQAPGKERELVAAISGNGGNTNYADSVKGRFTISRDNAKNTVYLQMNSLKPEDTAVYYCKADVPSDGYPGYPGGFESWGQGTQVTVSS
  polyreactivity (PSR sort gate): low polyreactivity

## QVQLVESGGGLVQAGGSLRLSCAASGYIFPSNTMGWSIQAPGKERELVATISRSGVSTYYADSVKGRFTISRDYAKNTVYLHMYSLKPDDTAVYYCAASTVYYYRSKWLSSFDYWGQGTQVTVSS
  polyreactivity (PSR sort gate): low polyreactivity

## QVQLEESGGGLVQAGGSLRLSCAASGRTFSRNAMGWYIQAPGKERELVAAISQRGVSTYYADSVKGRFTISRDNAMNTVYLQMNSLKPEDTAVYYCNTRGTYRYDYWGQGTQVTVSS
  polyreactivity (PSR sort gate): low polyreactivity

## QVQLVESGGGLVQAGGSLRLSCAASGRIFLWYAMGWYRQAPGKERELVAAISSGGSTIYADSVKGRFTISRDNAKNTVYLQMNSLKPEDTAVNYCAAFPTQRRHPLVGFNSWGQGTQVTVSS
  polyreactivity (PSR sort gate): high polyreactivity

## QVQLVESGGGLVQAGGSLRLSCAASGFTFYKNTMGWYRQAPGKERELVAAISSSGSSTYYADSVKGRFTISRDNAKNTVYLQMNSLKPEDTAVYYCAAGRFAYHDDYWGQGTQVTVSS
  polyreactivity (PSR sort gate): high polyreactivity

## QVQLQESGGGMVQAGGSLRLSCAASGSIFVSVTMGWYRQAPGKERELVASIGRGSTTNHADSVKGLFTISRDNAKNIVYLLMNSLKPEDTAVYYCAALESYAKYHGYWGQGTQVTVSS
  polyreactivity (PSR sort gate): low polyreactivity

## QVQLVESGGGLVQAGGSLRLSCAASGRIFYPYAMGWYRQAPGKERELVAAISRSGGSTYYADTVKGRFTISRDNAKNTVYLQMNSLKPEDTAVYYCAAEVVYFYSDAHIGYVDYEYWGQGTQVTVSS
  polyreactivity (PSR sort gate): low polyreactivity

## QDQLVDSGGGLVQAGGSLRLSSSDSGSIFRYYTMGWYRQSPGKERELVARISSSRSTNYADSVKGRFTISRDNAKNTVYLQMNSLKPEDTEVYYCAARAFSWAGFYYWGQGTQVTVSS
  polyreactivity (PSR sort gate): low polyreactivity

## QVQLVESGGGLVQAGGSLRLSCAASGSIFQHYAMGWYRQAPGKVRELVAAISSDTTSTYYADSVKGRFTISRDNAKNTVYLQMHSLKPEDTAVYYCNTYPEVYGPFQYDYWGQGTQVTVSS
  polyreactivity (PSR sort gate): low polyreactivity

## QGQLVESAGGLVQAGGSLRLSCAAYGRIFGINAMGWYRQAPGKERELVAASTGGGSTYADSVKGRVTISRDNAKNTVYLHMNSLKPEATAVYYCAARKIWSSIAYYYWGQGTQVTVSS
  polyreactivity (PSR sort gate): low polyreactivity
